Results: article doi:10.1101/2021.02.18.431813 (bioRxiv, 2021)

Columns and labels:
Assay in all cases: PIE-FCCS
[1] = target: the molecule itself
[2] = target: T1, Plexin A4ΔSema (human, UniProt Q9HCM2 24-1894, deletes residues 39-506)
T1 sequence (looked up): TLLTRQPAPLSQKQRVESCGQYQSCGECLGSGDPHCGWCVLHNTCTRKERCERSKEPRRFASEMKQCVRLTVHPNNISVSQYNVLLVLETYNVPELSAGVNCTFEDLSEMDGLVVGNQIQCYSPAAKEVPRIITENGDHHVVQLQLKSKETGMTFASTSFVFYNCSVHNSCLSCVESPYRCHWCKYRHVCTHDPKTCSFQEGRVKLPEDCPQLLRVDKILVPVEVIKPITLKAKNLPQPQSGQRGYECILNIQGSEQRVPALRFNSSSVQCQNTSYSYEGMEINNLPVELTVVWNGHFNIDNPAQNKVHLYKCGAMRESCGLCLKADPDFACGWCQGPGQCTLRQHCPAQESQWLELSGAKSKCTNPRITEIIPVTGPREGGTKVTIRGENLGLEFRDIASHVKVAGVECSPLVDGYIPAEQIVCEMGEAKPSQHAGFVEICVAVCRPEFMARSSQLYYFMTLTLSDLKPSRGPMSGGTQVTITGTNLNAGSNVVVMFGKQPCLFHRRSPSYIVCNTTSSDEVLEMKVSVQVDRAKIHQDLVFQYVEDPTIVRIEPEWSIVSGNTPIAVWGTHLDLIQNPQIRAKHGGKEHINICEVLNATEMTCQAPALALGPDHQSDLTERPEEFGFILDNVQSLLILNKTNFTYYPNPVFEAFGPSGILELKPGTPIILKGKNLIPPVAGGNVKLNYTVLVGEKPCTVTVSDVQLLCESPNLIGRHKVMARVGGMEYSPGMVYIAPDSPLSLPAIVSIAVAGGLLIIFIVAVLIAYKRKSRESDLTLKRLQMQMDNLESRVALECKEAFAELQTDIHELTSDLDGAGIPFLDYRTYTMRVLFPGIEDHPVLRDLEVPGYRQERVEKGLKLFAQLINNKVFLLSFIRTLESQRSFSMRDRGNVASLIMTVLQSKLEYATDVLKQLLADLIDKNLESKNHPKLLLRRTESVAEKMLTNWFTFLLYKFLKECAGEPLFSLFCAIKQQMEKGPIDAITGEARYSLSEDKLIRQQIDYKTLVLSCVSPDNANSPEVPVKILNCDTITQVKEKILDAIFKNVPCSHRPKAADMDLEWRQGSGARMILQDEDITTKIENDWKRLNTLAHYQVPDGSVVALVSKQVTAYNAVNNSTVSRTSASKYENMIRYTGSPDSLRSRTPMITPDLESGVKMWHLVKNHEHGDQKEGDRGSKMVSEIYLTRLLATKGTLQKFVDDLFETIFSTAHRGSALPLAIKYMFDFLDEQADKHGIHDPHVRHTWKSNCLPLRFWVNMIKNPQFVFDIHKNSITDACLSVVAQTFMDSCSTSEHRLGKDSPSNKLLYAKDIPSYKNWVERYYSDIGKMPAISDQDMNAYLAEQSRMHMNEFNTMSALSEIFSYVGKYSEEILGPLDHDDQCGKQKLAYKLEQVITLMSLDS

[3] = target: Plexin A4 (human, UniProt Q9HCM2 24-1894)

median fraction correlated (fc) [2]: 0.23
median fraction correlated (fc) [3]: 0.08
B1: Plexin A2 (receptor, human, UniProt O75051 35-1894, looked up)
chain: MPQFSTFHSENRDWTFNHLTVHQGTGAVYVGAINRVYKLTGNLTIQVAHKTGPEEDNKSCYPPLIVQPCSEVLTLTNNVNKLLIIDYSENRLLACGSLYQGVCKLLRLDDLFILVEPSHKKEHYLSSVNKTGTMYGVIVRSEGEDGKLFIGTAVDGKQDYFPTLSSRKLPRDPESSAMLDYELHSDFVSSLIKIPSDTLALVSHFDIFYIYGFASGGFVYFLTVQPETPEGVAINSAGDLFYTSRIVRLCKDDPKFHSYVSLPFGCTRAGVEYRLLQAAYLAKPGDSLAQAFNITSQDDVLFAIFSKGQKQYHHPPDDSALCAFPIRAINLQIKERLQSCYQGEGNLELNWLLGKDVQCTKAPVPIDDNFCGLDINQPLGGSTPVEGLTLYTTSRDRMTSVASYVYNGYSVVFVGTKSGKLKKIRADGPPHGGVQYEMVSVLKDGSPILRDMAFSIDQRYLYVMSERQVTRVPVESCEQYTTCGECLSSGDPHCGWCALHNMCSRRDKCQQAWEPNRFAASISQCVSLAVHPSSISVSEHSRLLSLVVSDAPDLSAGIACAFGNLTEVEGQVSGSQVICISPGPKDVPVIPLDQDWFGLELQLRSKETGKIFVSTEFKFYNCSAHQLCLSCVNSAFRCHWCKYRNLCTHDPTTCSFQEGRINISEDCPQLVPTEEILIPVGEVKPITLKARNLPQPQSGQRGYECVLNIQGAIHRVPALRFNSSSVQCQNSSYQYDGMDISNLAVDFAVVWNGNFIIDNPQDLKVHLYKCAAQRESCGLCLKADRKFECGWCSGERRCTLHQHCTSPSSPWLDWSSHNVKCSNPQITEILTVSGPPEGGTRVTIHGVNLGLDFSEIAHHVQVAGVPCTPLPGEYIIAEQIVCEMGHALVGTTSGPVRLCIGECKPEFMTKSHQQYTFVNPSVLSLNPIRGPESGGTMVTITGHYLGAGSSVAVYLGNQTCEFYGRSMSEIVCVSPPSSNGLGPVPVSVSVDRAHVDSNLQFEYIDDPRVQRIEPEWSIASGHTPLTITGFNLDVIQEPRIRVKFNGKESVNVCKVVNTTTLTCLAPSLTTDYRPGLDTVERPDEFGFVFNNVQSLLIYNDTKFIYYPNPTFELLSPTGVLDQKPGSPIILKGKNLCPPASGGAKLNYTVLIGETPCAVTVSETQLLCEPPNLTGQHKVMVHVGGMVFSPGSVSVISDSLLTLPAIVSIAAGGSLLLIIVIIVLIAYKRKSRENDLTLKRLQMQMDNLESRVALECKEAFAELQTDINELTSDLDRSGIPYLDYRTYAMRVLFPGIEDHPVLRELEVQGNGQQHVEKALKLFAQLINNKVFLLTFIRTLELQRSFSMRDRGNVASLIMTGLQGRLEYATDVLKQLLSDLIDKNLENKNHPKLLLRRTESVAEKMLTNWFAFLLHKFLKECAGEPLFMLYCAIKQQMEKGPIDAITGEARYSLSEDKLIRQQIEYKTLILNCVNPDNENSPEIPVKVLNCDTITQVKEKILDAVYKNVPYSQRPRAVDMDLEWRQGRIARVVLQDEDITTKIEGDWKRLNTLMHYQVSDRSVVALVPKQTSSYNIPASASISRTSISRYDSSFRYTGSPDSLRSRAPMITPDLESGVKVWHLVKNHDHGDQKEGDRGSKMVSEIYLTRLLATKGTLQKFVDDLFETLFSTVHRGSALPLAIKYMFDFLDEQADRHSIHDTDVRHTWKSNCLPLRFWVNVIKNPQFVFDIHKGSITDACLSVVAQTFMDSCSTSEHRLGKDSPSNKLLYAKDIPSYKSWVERYYADIAKLPAISDQDMNAYLAEQSRLHAVEFNMLSALNEIYSYVSKYSEELIGALEQDEQARRQRLAYKVEQLINAMSIES
median fraction correlated (fc) [1]: 0.09
stoichiometry N [1]: 2
